In general, Kd refers to a measure of binding affinity in units of concentration. Usually koff stands for the rate constant with which the complex falls apart. What is called kon is a measure of how fast the partners come together.

The record followed here is patent publication US20220017630A1 (JIANGSU SIMCERE PHARMACEUTICAL, published 2022).

For one experiment, the target named is T1, mouse TNFR2 (mouse, UniProt P25119 23-258, limits assumed).
T1 sequence (looked up): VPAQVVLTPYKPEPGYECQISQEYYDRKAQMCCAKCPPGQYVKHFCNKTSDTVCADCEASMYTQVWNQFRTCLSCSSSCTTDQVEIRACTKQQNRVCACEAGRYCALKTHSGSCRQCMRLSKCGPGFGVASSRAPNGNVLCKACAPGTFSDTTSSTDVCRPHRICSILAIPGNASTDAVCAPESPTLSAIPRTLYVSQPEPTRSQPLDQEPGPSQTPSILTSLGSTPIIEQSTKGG
Nature of the experiment: ELISA. (In general: ELISA stands for enzyme-linked immunosorbent assay.)

The target of another experiment is T2, human CREG-His protein (human, UniProt O75629 32-220, limits assumed).
T2 construct: Control antigen in ELISA; also called control human CREG-His
T2 sequence (looked up): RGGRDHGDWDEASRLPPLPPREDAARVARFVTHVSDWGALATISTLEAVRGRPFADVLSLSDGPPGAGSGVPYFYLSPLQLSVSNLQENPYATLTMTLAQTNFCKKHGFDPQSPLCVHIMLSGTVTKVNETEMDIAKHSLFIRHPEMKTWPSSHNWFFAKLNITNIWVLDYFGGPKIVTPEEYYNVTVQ
Description: ELISA.

Experiment [1] addresses T3, Human TNFR2 recombinant protein (Sino 10417-H08H) (human, UniProt P20333 23-257).
T3 construct: also called hTNFR2 (His tag)
T3 sequence (looked up): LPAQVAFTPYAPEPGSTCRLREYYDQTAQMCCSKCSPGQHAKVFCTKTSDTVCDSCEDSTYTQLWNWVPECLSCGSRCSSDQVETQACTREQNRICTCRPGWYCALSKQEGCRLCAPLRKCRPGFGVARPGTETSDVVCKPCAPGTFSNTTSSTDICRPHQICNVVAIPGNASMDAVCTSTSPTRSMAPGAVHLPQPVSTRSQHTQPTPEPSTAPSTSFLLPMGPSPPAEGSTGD
Description: SPR Biacore, antibody on Protein A chip, TNFR2 analyte. The protocol:
In this experiment, Protein A chip was used, and the time required for the chip to capture the diluted antibody was determined by manual run, so that the Rmax of the saturated binding antigen was 50 RU. Human TNFR2 (Sino 10417-H08H) and cynomolgus TNFR2 (Sino 90102-C08H) were diluted to 32, 16, 8, 4, 2 nM. The affinity of antibody and antigen was measured by multi-cycle kinetics. In each cycle, anti-TNFR2 antibodies were injected prior to the injection of gradient concentrations of TNFR2 protein allowing the occurrence of antibody-antigen association and dissociation. After each cycle, the Protein A chip was regenerated with Glycine pH1.5 (to remove the protein on the chip). BIAcore T200 analysis software was used to calculate the affinity KD of antibody binding to antigen.
(In general: In SPR one partner is held on a chip, and binding of the other changes the refractive index at the surface.)

The target in experiment [2] is T4, human TNFR2 (Novoprotein, Catalog No. C830) (human, UniProt P20333 23-257, limits assumed).
T4 construct: construct not described; also called TNFR2 protein
T4 sequence (looked up): T3 sequence (looked up)
Nature of the experiment: blocking ELISA, TNFα-biotin on coated human TNFR2, antibody 20 nM. The procedure:
A microplate was pre-coated with 100 μl/well of 1 μg/ml human TNFR2 (Novoprotein, Catalog No. C830). […] After washing the plate, a Streptavidin-HRP working solution (1:10000 dilution) was added at 100 μl/well, and incubated with shaking at room temperature for 40 min. The plate was washed again, the HRP substrate TMB was added for color development, the termination solution was added to terminate the reaction, and the microplate reader was used to read the absorption value.

Experiment [3] has as its target T5, human TNFR2 on the cell surface (CHO-TNFR2 cells; human Treg cells) (human, UniProt P20333 23-461).
T5 construct: whole, on cells; The assay field of each row says which cells; also called TNFR2-CHO cell; TNFR2 on Treg cells
T5 sequence (looked up): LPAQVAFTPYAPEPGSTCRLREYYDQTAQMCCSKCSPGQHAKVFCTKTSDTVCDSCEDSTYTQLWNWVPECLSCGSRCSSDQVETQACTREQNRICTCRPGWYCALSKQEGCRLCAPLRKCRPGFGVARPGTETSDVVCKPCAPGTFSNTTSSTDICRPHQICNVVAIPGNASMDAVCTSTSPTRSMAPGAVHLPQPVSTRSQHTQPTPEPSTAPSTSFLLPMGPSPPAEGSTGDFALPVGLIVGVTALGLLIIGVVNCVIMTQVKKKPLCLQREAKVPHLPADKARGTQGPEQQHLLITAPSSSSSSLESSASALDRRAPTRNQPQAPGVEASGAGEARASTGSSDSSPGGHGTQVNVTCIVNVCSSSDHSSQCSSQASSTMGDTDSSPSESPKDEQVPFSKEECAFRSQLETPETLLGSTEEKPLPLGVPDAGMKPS
Nature of the experiment: flow cytometry, blocking of TNFα-biotin on CHO-TNFR2 cells; against 002#. The procedure:
(§1) CHO cells that stably overexpressed human TNFR2 were used for experiments. The cells were resuscitated and passaged until in good state, and the expression level of human TNFR2 on the cells was assessed by FACS. Compared to the isotype control, the assay could be carried out when the fold change of mean fluorescence intensity (MFI) was more than 100 times.
(§2) CHO-TNFR2 cells were digested, washed twice with DPBS and stained with Live/Dead (L/D) at room temperature for 20 min, and then seeded at 1×10⁵ cells/50 μl/well. […] The diluted antibodies were added 50 μl/well into wells pre-seeded with cells, and gently blown and mixed to make the final concentrations of the antibodies to 20, 6.67, 2.22, 0.74, 0.247, 0.08, 0.027 and 0 nM, respectively followed by incubation at 4° C. for 30 min. […] After washing twice with the staining buffer, 100 μl/well of PE-streptavidin was added and incubated at 4° C. for 30 min. After additional washing with the staining buffer twice, 150 μl resuspended cells was analyzed using an flow cytometry. Taking the logarithmic value of the antibody concentrations as abscissa and the corresponding MFI value as ordinate, the inhibition curve of the antibody was drawn, and the IC50 value was calculated by four parameters fitting.

For experiment [4], the target named is T5, human TNFR2 on the cell surface …. Description: flow cytometry, blocking of TNFα-biotin on CHO-TNFR2 cells; AUC for 002# / AUC for antibody x 100. The procedure:
as §1, §2

Residue numbers refer to the chain shown, from its start.

B1: TNFR2 antibody #219 (antibody, V domains shown)
VH: EVQLQESGAELVRPGASVKLSCKASGYSFTNYWMNWVKQRPGQGLEWIGMIHPSDTETRLNQNFKDKATLTVDKSSSTSYMQLSSPTSEDSAVYYCARGEGLGAARSVSMDYWGQGTTVTVSS
VL: DILMTQSPSSLSASLGDRVTISCRASQDISNYLNWYQQKPDGTVKVLIYYTAILHSGVPSRFSGSGSGTDYSLTISNLEQEDIATYFCQQGNTLPWTFGGGTKLEIK
With B1, the binding result with mouse TNFR2 is reported as “no binding (tested: 28 ng/ml)”. Further, the binding result with human CREG-His protein is “no binding (tested: 28 ng/ml)”. In experiment [1], the Kd is 0.234 nM, the koff worked out at 8.4e-05 s⁻¹ and the kon amounted to 358000 M⁻¹ s⁻¹. Moreover, the “ELISA OD of antibodies to be tested (20 nM)” value (“ELISA OD of antibodies” below) in experiment [2] amounted to 0.28 OD. The “IC50 Relative Value %” value in experiment [3] was 71.4%. Besides, the AUC % in experiment [4] stood at 93.7%.

B2: TNFR2 antibody #226 (antibody, V domains shown)
VH: B1 VH with T56S, N63K, S79A
VL: B1 VL with L3Q, I53L
Take B2: the binding result in the experiment with mouse TNFR2 is reported as “no binding (tested: 28 ng/ml)”. In addition, the binding result with human CREG-His protein was “no binding (tested: 28 ng/ml)”. Further, in experiment [1], the Kd was 0.194 nM, the koff turned out to be 7.14e-05 s⁻¹ and the kon was 369000 M⁻¹ s⁻¹. In experiment [2], the “ELISA OD of antibodies” value turned out to be 0.237 OD. Moreover, the “IC50 Relative Value %” value in experiment [3] turned out to be 129%. Also, the AUC % in experiment [4] amounted to 98.7%.

B3: TNFR2 antibody #125 (antibody, V domains shown)
VH: EVQLQESGGGLVQPGGSLNLSCAASGFAFSIYDLSWVRQTPEKRLEWVAYINNGGISTYYSDTVKGRFTISRDNAKNTLYLQMSSLKSEDTAMYYCVRGPFYGSANYFDYWGQGTTVTVSS
VL: DIQMTQSPASLSLSVGETVTITCRASENIYSNLAWYQQKQGKSPQLLVYDATKLAEGVPSRFSGSESGTQYSLKINSLQSEDFGTYYCQHFWVTPWTFGGGTKLEIK
As to B3, in the experiment with mouse TNFR2, the binding result was “no binding (tested: 28 ng/ml)”. For the same molecule, the binding result in the experiment with human CREG-His protein is on record as “no binding (tested: 28 ng/ml)”. In addition, in experiment [1], the Kd was 0.0681 nM, the koff was determined as 5.57e-05 s⁻¹ and the kon came to 817000 M⁻¹ s⁻¹. Besides, in experiment [2], the “ELISA OD of antibodies” value came to 0.161 OD. The “IC50 Relative Value %” value in experiment [3] is 165%. Also, the AUC % in experiment [4] is 121%.

B4: TNFR2 antibody #088 (antibody, V domains shown)
VH: B3 VH with I31T, E42G, S71T
VL: B3 VL with Q3L, S14F
On to B4, for which, in the experiment with mouse TNFR2, the binding result is “no binding (tested: 12 ng/mL)”. Besides, in the experiment with human CREG-His protein, the binding result is “no binding (tested: 12 ng/mL)”. For the same molecule, in experiment [1], the Kd is 0.107 nM, the koff is 5.46e-05 s⁻¹ and the kon came to 510000 M⁻¹ s⁻¹. For the same molecule, the “ELISA OD of antibodies” value in experiment [2] is 0.35 OD. Further, the “IC50 Relative Value %” value in experiment [3] stood at 41.5%. In experiment [4], this molecule registered an AUC % of 75.4%.

B5: TNFR2 antibody #001 (antibody, V domains shown)
VH: B3 VH with I31T
VL: B3 VL with D1E, Q3V, A25T, N28S, A34P
notes: also called antibody #1
As for B5, the binding result with mouse TNFR2 is recorded as “no binding (tested: 28 ng/ml)”. Moreover, the binding result with human CREG-His protein is recorded as “no binding (tested: 28 ng/ml)”. In experiment [1], the Kd came out at 0.161 nM, the koff worked out at 8.95e-05 s⁻¹ and the kon came to 556000 M⁻¹ s⁻¹. Further, the “ELISA OD of antibodies” value in experiment [2] turned out to be 0.198 OD. For the same molecule, in experiment [3], the “IC50 Relative Value %” value stood at 65.6%. In experiment [4], this molecule came in with an AUC % of 88.3%.

B6: TNFR2 antibody #309 (antibody, V domains shown)
VH: EVQLQESGAELVKPGASVKLSCKASGYTFTSYWIHWVKLRPGQGFEWIGEINPNNGGTDYNEKFKRKATLTVDKSSSTAYMELSSLTSEDSAIYYCTIDSMITTTWFAYWGQGTTVTVSS
VL: EIVMTQSQKLMSTVVGDRVSVTCKASQNVGTNVAWFQQKPGQSPKALINSASYRYSGVPDRFTGSGSGTDFTLTISSVQSEDLAEYFCQQYNSYPFTFGSGTKLEIK
In the case of B6, the binding result with mouse TNFR2 is “no binding (tested: 12 ng/mL)”. Moreover, in the experiment with human CREG-His protein, the binding result is given as “no binding (tested: 12 ng/mL)”. Further, in experiment [1], the Kd amounted to 1.44 nM, the koff came out at 0.000748 s⁻¹ and the kon turned out to be 519000 M⁻¹ s⁻¹. For the same molecule, the “ELISA OD of antibodies” value in experiment [2] is 0.34 OD. In addition, the “IC50 Relative Value %” value in experiment [3] came to 70.7%. The AUC % in experiment [4] was 92.4%.

B7: TNFR2 antibody #224 (antibody, V domains shown)
VH: EVQLQESGPEIVKPGASVKLSCTASGFNNKDIYMHWVKQRPEQGLEWIGRIDPATGNTKHDPKFQDKATLSSDTSSNTAYLQFSSLTSEDTAVYYCAHSPYGDFGAMDYWGQGTTVTVSS
VL: DIQMTQSPAIMSASLGERVTMTCTASSSVSSNYLHWYQQKPGSSPKLWIYSTSNLPSGVPARFSGSGSGTSYSLTISSMEAEDAATYYCHQYHRSPWTFGGGTKLEIK
For B7, the binding result with mouse TNFR2 is recorded as “no binding (tested: 28 ng/ml)”. The binding result with human CREG-His protein is given as “no binding (tested: 28 ng/ml)”. In experiment [1], the Kd came out at 0.101 nM, the koff was found to be 2.36e-05 s⁻¹ and the kon was 233000 M⁻¹ s⁻¹. The “ELISA OD of antibodies” value in experiment [2] worked out at 0.123 OD. The “IC50 Relative Value %” value in experiment [3] was 132%. In experiment [4], this molecule yielded an AUC % of 100%.

B8: TNFR2 antibody #133 (antibody, V domains shown)
VH: EVQLQESGAELVRSGASVKLSCTASGFNIKDYYIQWVKQRPEQGLEWIGWIDPESGNTKYAPKFQDKATMTADTSSNTAYLQLSGLTSEDSAVYYCNAYYDYDGSMDYWGQGTTVTVSS
VL: DIVMTQSPLSLPVSLGDQASISCRSSQSLVHSNGNTYLHWYLQKPGQSPKLLIYKVSNRFSGVPDRFSGSGSGTDFTLKISRVETDDLGVYFCSQSTHVPTWTFGGGTKLEIK
Regarding B8, the binding result in the experiment with mouse TNFR2 is “no binding (tested: 28 ng/ml)”. The binding result with human CREG-His protein is recorded as “no binding (tested: 28 ng/ml)”. In experiment [1], the Kd stood at 2.94 nM, the koff amounted to 0.00388 s⁻¹ and the kon was found to be 1.32e+06 M⁻¹ s⁻¹. Besides, the “ELISA OD of antibodies” value in experiment [2] is 0.454 OD. For the same molecule, in experiment [3], the “IC50 Relative Value %” value was found to be 150%. The same molecule yielded an AUC % in experiment [4] of 99.9%.
